Columns and labels:
[1] = biological target: T1, recombinant BCMA (Sino Biological 10620-H03H-B) (human, UniProt Q02223 1-54); experiment: ELISA, plate coated with recombinant BCMA
T1 construct: Bought protein; also called human BCMA
T1 sequence (looked up): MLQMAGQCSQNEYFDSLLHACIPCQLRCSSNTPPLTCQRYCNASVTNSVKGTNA

[2] = biological target: T2, human CD38 extracellular domain (hCD38, recombinant, with AviTag) (human, UniProt P28907 43-300); experiment: ELISA on human CD38 ECD, EC50 class
T2 construct: also called recombinant CD38; huCD38

B1: Anti-BCMA.BMK2_ADCC.high (antibody, human IgG1, kappa)
heavy: EVQLQQSGAVLARPGASVKMSCKGSGYTFTNYWMHWVKQRPGQGLEWIGATYRGHSDTYYNQKFKGKAKLTAVTSTSTAYMELSSLTNEDSAVYYCTRGAIYNGYDVLDNWGQGTLVTVSSASTKGPSVFPLAPSSKSTSGGTAALGCLVKDYFPEPVTVSWNSGALTSGVHTFPAVLQSSGLYSLSSVVTVPSSSLGTQTYICNVNHKPSNTKVDKKVEPKSCDKTHTCPPCPAPELLGGPDVFLFPPKPKDTLMISRTPEVTCVVVDVSHEDPEVKFNWYVDGVEVHNAKTKPREEQYNSTYRVVSVLTVLHQDWLNGKEYKCKVSNKALPLPEEKTISKAKGQPREPQVYTLPPSRDELTKNQVSLTCLVKGFYPSDIAVEWESNGQPENNYKTTPPVLDSDGSFFLYSKLTVDKSRWQQGNVFSCSVMHEALHNHYTQKSLSLSPGK
light: DIQLTQTTSSLSASLGDRVTISCSASQDISNYLNWYQQKPDGTVELVIYYTSNLHSGVPSRFSGSGSGTDYSLTIGYLEPEDVATYYCQQYRKLPWTFGGGSKLEIKRRTVAAPSVFIFPPSDEQLKSGTASVVCLLNNFYPREAKVQWKVDNALQSGNSQESVTEQDSKDSTYSLSSTLTLSKADYEKHKVYACEVTHQGLSSPVTKSFNRGEC
notes: Monoclonal IgG1 with ADCC-high Fc mutations; also called ADCC-high variant of Anti-BCMA BMK2 antibody
For B1, which EC50 [1] is on record?
The EC50 was ~0.02 nM.

B2: Anti-CD38 LC_Y92A (antibody, V domains shown)
VH: EVQLLESGGGLVQPGGSLRLSCAASGFSFNNYWIIWIRQAPGKGLEWVAAIYSPSGDIKYYADWAKGRFTVSKDNSKNTVYLQMNSLRAEDTAVYYCARELSGSSYEGYFESWGQGTLVTVSS
VL: DIQLTQSPSTLSASVGDRVTITCRSSQSVYGHNWLAWYQQKPGKAPKLLMYRASNLASGVPSRFSGSGSGTEFTLTISSVQPDDFATYYCQGYASGGSYAFGGGTKVEIK
notes: Alanine variant of h18E4-19 with the parent VH
For B2, which EC50 [2] is on record?
Its EC50 is 0.02 to 0.1 nM.

B3: Anti-CD38 LC_Y96A (antibody, V domains shown)
VH: EVQLLESGGGLVQPGGSLRLSCAASGFSFNNYWIIWIRQAPGKGLEWVAAIYSPSGDIKYYADWAKGRFTVSKDNSKNTVYLQMNSLRAEDTAVYYCARELSGSSYEGYFESWGQGTLVTVSS
VL: DIQLTQSPSTLSASVGDRVTITCRSSQSVYGHNWLAWYQQKPGKAPKLLMYRASNLASGVPSRFSGSGSGTEFTLTISSVQPDDFATYYCQGYYSGGSAAFGGGTKVEIK
notes: as for B2
B3 was tested. Which EC50 [2] did it give?
The EC50 was 0.1 to 0.5 nM.

B4: Anti-BCMA (antibody, human IgG1, kappa)
heavy: not shown
light: DIQLTQTTSSLSASLGDRVTISCSASQDISNYLNWYQQKPDGTVELVIYYTSNLHSGVPSRFSGSGSGTDYSLTIGYLEPEDVATYYCQQYRKLPWTFGGGSKLEIKRTVAAPSVFIFPPSDEQLKSGTASVVCLLNNFYPREAKVQWKVDNALQSGNSQESVTEQDSKDSTYSLSSTLTLSKADYEKHKVYACEVTHQGLSSPVTKSFNRGEC
notes: also called Anti-BCMA BMK2 antibody; Anti-BCMA.BMK2
With B4 as the binder, how does the EC50 [1] read?
The EC50 was ~0.02 nM.
